What was measured:
Assay in all cases: sandwich ELISA (rabbit anti-L1 capture)
HPV6L1 = target: T1, HPV6L1 (human papillomavirus type 6, UniProt P69899 1-500)
T1 construct: also called HPV 6 L1原液
T1 sequence: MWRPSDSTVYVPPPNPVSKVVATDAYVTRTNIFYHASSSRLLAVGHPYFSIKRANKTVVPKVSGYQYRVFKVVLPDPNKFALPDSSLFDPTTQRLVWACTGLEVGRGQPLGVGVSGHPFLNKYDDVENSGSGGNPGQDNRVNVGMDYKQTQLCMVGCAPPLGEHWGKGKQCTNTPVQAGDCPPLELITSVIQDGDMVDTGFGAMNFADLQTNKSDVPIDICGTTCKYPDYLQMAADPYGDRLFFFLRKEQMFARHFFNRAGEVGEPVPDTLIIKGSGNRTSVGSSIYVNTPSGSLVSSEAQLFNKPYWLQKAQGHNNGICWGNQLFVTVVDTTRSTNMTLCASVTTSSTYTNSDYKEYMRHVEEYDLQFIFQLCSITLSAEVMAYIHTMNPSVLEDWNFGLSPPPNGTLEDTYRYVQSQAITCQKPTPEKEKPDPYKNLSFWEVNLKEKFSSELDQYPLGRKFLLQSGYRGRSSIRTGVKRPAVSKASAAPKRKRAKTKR

HPV18L1 = target: T2, HPV18L1 (human papillomavirus type 18, UniProt P06794 62-568)
T2 sequence: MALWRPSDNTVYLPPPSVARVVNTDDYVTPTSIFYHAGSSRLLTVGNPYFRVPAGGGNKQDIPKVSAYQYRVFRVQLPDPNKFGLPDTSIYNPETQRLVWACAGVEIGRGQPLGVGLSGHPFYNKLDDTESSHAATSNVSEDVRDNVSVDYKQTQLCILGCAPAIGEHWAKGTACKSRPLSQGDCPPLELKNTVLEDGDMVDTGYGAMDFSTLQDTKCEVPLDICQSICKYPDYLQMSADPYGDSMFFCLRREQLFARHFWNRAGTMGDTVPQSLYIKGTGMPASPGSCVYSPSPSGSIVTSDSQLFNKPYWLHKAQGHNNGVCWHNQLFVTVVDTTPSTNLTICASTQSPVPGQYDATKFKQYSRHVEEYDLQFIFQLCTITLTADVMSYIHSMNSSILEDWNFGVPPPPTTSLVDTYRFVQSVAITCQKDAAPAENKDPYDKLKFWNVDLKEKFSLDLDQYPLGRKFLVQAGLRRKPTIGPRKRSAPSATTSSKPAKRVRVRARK

HPV31L1 = target: T3, HPV31L1 (human papillomavirus type 31, UniProt P17388 1-504)
T3 sequence: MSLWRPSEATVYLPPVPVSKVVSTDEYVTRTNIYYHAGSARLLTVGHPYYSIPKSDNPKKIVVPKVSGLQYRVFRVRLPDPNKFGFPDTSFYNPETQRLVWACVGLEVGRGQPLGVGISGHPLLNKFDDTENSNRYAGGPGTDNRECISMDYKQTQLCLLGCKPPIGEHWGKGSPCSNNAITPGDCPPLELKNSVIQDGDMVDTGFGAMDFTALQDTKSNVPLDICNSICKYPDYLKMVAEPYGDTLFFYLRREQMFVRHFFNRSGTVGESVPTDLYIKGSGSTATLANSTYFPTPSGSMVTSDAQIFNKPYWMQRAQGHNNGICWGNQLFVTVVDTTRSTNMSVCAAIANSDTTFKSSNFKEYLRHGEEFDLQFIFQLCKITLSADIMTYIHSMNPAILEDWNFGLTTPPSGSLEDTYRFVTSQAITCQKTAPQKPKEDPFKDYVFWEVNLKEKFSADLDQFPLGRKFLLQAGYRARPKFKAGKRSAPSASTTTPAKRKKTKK

HPV52L1 = target: T4, HPV52L1 (human papillomavirus type 52, UniProt Q05138 27-529)
T4 sequence: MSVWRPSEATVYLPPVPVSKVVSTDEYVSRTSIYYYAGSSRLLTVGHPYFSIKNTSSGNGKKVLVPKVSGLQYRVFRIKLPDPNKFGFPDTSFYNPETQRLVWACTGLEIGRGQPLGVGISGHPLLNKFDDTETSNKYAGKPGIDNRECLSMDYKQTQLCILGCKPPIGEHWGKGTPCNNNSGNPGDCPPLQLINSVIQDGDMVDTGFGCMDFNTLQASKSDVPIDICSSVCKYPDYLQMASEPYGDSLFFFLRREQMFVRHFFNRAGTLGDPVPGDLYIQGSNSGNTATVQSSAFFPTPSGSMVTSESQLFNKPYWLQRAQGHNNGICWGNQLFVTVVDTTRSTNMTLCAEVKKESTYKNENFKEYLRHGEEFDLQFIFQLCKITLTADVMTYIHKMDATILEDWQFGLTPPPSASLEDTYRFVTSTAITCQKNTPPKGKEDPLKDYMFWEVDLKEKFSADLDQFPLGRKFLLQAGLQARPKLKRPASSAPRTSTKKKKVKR

HPV39L1 = target: T5, HPV39L1 (human papillomavirus type 39, UniProt P24838 1-505)
T5 sequence: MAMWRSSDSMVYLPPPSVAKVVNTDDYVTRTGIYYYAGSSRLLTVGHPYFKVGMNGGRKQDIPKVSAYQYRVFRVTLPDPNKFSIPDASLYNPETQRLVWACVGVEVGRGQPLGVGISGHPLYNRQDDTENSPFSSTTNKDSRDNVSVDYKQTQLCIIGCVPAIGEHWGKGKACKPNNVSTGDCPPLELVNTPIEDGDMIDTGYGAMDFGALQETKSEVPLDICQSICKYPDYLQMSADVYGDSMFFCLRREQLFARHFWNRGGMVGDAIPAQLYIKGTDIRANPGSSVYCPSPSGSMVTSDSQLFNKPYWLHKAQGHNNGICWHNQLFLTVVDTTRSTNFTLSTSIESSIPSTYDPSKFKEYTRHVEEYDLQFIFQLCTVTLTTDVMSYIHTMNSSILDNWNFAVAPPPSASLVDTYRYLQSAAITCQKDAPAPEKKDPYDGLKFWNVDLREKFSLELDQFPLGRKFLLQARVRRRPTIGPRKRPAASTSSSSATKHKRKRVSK

B1: HPV 59编号为30单克隆抗体 (antibody, V domains shown)
VH: QIQLVQSGPELKKPGETVKISCKASGYTFTDYSMHWVKQAPGKGLKWMGWINTETGEPTYADDFKGRFAFSLETSASTAYLQINNLKIEDTATYFCTRDGYVWYFDVWGAGTTVTVSS
VL: QIVLSQSPAILSASPGEKVTMTCRASSSVNYMHWYQQKPGSSPKPWIYATSNLASGVPARFSGSGSGTSYSLTISRVEAEDAATYYCQQWSSNPIFTFGSGTKLEIK
notes: Mouse hybridoma antibody tested as cell supernatant; also called 59H30
binding result (HPV6L1): no binding (tested: 原液40μg/ml; 细胞上清1:100)
binding result (HPV18L1): no binding (tested: 原液40μg/ml; 细胞上清1:100)
binding result (HPV31L1): no binding (tested: 原液40μg/ml; 细胞上清1:100)
binding result (HPV52L1): no binding (tested: 原液40μg/ml; 细胞上清1:100)
binding result (HPV39L1): no binding (tested: 原液40μg/ml; 细胞上清1:100)

From patent CN117736312A (SHANGHAI BOVAX BIOLOGICAL SCIENCE & TECH CO LTD, dated 2024)
